We go through 1 substance from paper PMC3852656.

Test [1] addresses superfolder Cherry (sfCherry). In words: native gel or EMSA; native polyacrylamide gel at ∼10 mg/ml protein concentration.
Test [2] deals with superfolder Cherry (sfCherry). Description: crystal structure; sfCherry alone, 2.0 Å, space group P21, eight copies in the asymmetric unit; 0.1 M SPG buffer pH 5.0, 25% PEG 1500.

superfolder Cherry (sfCherry): in test [1], the percent dimer is 50% and the stoichiometry N amounted to 2. The substance also registered a stoichiometry N in test [2] of 2.

Usually stoichiometry N stands for a count of units in the complex or per binding partner.
